Results as given in PMC10530723, “The Conserved Chromatin Remodeler SMARCAD1 Interacts with TFIIIC and Architectural Proteins in Human and Mouse” (Genes, 2023).

Molecular target: T1, His-SMARCAD1 (human, recombinant) (human, UniProt Q9H4L7 1-1026)
T1 construct: also called hSMARCAD1; His-tagged human SMARCAD1; source: insect cells (baculovirus), purified via a His-tag
T1 sequence (looked up): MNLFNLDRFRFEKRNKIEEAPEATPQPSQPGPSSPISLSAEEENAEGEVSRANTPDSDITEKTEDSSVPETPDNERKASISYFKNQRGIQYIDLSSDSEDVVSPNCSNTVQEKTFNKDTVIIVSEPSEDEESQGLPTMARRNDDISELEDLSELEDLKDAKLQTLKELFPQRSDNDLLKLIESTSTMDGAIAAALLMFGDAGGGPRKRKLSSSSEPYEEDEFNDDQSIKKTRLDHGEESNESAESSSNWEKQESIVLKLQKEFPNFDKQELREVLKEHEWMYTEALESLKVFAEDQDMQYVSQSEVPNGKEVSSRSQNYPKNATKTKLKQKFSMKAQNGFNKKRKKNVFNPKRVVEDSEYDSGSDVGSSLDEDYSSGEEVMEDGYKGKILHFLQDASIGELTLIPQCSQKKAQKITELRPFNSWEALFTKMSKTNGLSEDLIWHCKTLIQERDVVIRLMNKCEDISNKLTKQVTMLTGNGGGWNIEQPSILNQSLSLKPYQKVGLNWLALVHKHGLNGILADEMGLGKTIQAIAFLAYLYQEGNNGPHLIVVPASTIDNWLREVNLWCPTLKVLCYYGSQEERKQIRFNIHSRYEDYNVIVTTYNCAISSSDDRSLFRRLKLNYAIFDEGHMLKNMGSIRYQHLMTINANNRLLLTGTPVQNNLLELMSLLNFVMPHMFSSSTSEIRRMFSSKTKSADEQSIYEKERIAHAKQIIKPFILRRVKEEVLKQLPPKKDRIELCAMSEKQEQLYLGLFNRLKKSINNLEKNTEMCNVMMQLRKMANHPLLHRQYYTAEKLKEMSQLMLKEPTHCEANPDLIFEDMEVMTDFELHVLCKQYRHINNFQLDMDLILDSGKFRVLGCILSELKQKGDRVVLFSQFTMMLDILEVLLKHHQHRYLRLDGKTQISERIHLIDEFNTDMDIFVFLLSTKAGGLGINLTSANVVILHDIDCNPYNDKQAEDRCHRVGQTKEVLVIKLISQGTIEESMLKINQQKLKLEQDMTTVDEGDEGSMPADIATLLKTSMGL
Assay: pull-down; GST fusion proteins on glutathione Sepharose 4B beads (13 ug protein), 1 ug His-Smarcad1 in solution; 100 mM NaCl, 20 mM Hepes, 5% glycerol, 0.1% Triton; 1.5 h at 4 °C; bound protein detected by Western blot with anti-SMARCAD1
Settings: both partners purified

B1: GST-TFIIIC102 (human, full-length) (natural protein, UniProt Q9Y5Q9 1-886, looked up)
chain: MSGFSPELIDYLEGKISFEEFERRREERKTREKKSLQEKGKLSAEENPDDSEVPSSSGINSTKSQDKDVNEGETSDGVRKSVHKVFASMLGENEDDEEEEEEEEEEEEEEETPEQPTAGDVFVLEMVLNRETKKMMKEKRPRSKLPRALRGLMGEANIRFARGEREEAILMCMEIIRQAPLAYEPFSTLAMIYEDQGDMEKSLQFELIAAHLNPSDTEEWVRLAEMSLEQDNIKQAIFCYTKALKYEPTNVRYLWERSSLYEQMGDHKMAMDGYRRILNLLSPSDGERFMQLARDMAKSYYEANDVTSAINIIDEAFSKHQGLVSMEDVNIAAELYISNKQYDKALEIITDFSGIVLEKKTSEEGTSEENKAPENVTCTIPDGVPIDITVKLMVCLVHLNILEPLNPLLTTLVEQNPEDMGDLYLDVAEAFLDVGEYNSALPLLSALVCSERYNLAVVWLRHAECLKALGYMERAAESYGKVVDLAPLHLDARISLSTLQQQLGQPEKALEALEPMYDPDTLAQDANAAQQELKLLLHRSTLLFSQGKMYGYVDTLLTMLAMLLKVAMNRAQVCLISSSKSGERHLYLIKVSRDKISDSNDQESANCDAKAIFAVLTSVLTKDDWWNLLLKAIYSLCDLSRFQEAELLVDSSLEYYSFYDDRQKRKELEYFGLSAAILDKNFRKAYNYIRIMVMENVNKPQLWNIFNQVTMHSQDVRHHRFCLRLMLKNPENHALCVLNGHNAFVSGSFKHALGQYVQAFRTHPDEPLYSFCIGLTFIHMASQKYVLRRHALIVQGFSFLNRYLSLRGPCQESFYNLGRGLHQLGLIHLAIHYYQKALELPPLVVEGIELDQLDLRRDIAYNLSLIYQSSGNTGMAQTLLYTYCSI
notes: TFIIIC102, human, full-length, cDNA from OriGene (RC208122) cloned into pGEX-6P-1 (BamH1/Not1); pGEX-6P-1 places GST at the N-terminus (surmised from the vector; the reverse primer carries the stop codon); also called hTFIIIC102; human TFIIIC102 GST-fusion protein; source: E. coli, purified (glutathione Sepharose 4B beads)
B1: binds.
